B1: Hairpin Ribozyme (parent)
chain: GUCCUCUUUCACGUGCGCGUGAAAGAGAGAAGUGAACCAGAGAAACACACGUUGUGGUAUAUUACCUGGUA

Variants of: B1
Experiment: self-cleavage, relative activity (ratio to wild type); higher = more cleavage; co-transcriptional
In the case of G69C A71U, the self-cleavage is reported as 0.57. Work on G68A yielded a self-cleavage of 0.282. For G68U, the self-cleavage was 0.254. G68C gave a self-cleavage of 0.212. G68A A71G showed a self-cleavage of 0.174. G68C U70G showed a self-cleavage of 0.576. Variant G68U G69C has a self-cleavage of 0.136. With G68U U70A the self-cleavage was 0.269. G68U U70C showed a self-cleavage of 0.201. With U70A A71U the self-cleavage was 1.63. U70A A71G showed a self-cleavage of 0.886. Work on G69A U70A yielded a self-cleavage of 0.434. With G68A U70G the self-cleavage was 0.3. For G68A U70C, the self-cleavage was 0.336. G69U U70A gave a self-cleavage of 0.346. G69C U70G showed a self-cleavage of 0.657. With U67G U70G the self-cleavage was 0.125. With G68C G69C the self-cleavage was 0.206. G68C G69A gave a self-cleavage of 0.152. U70G A71G gave a self-cleavage of 1.82. A71C gave a self-cleavage of 1.42. In the case of A71U, the self-cleavage is reported as 0.796. A71G gave a self-cleavage of 1.04. In the case of G68A G69C, the self-cleavage is reported as 0.19. Work on G68A G69A yielded a self-cleavage of 0.103.
